Patent US20200057047

Test system: HA-tagged AhR

Sequence of Myc-tagged PKCθ (Q04759 whole entry): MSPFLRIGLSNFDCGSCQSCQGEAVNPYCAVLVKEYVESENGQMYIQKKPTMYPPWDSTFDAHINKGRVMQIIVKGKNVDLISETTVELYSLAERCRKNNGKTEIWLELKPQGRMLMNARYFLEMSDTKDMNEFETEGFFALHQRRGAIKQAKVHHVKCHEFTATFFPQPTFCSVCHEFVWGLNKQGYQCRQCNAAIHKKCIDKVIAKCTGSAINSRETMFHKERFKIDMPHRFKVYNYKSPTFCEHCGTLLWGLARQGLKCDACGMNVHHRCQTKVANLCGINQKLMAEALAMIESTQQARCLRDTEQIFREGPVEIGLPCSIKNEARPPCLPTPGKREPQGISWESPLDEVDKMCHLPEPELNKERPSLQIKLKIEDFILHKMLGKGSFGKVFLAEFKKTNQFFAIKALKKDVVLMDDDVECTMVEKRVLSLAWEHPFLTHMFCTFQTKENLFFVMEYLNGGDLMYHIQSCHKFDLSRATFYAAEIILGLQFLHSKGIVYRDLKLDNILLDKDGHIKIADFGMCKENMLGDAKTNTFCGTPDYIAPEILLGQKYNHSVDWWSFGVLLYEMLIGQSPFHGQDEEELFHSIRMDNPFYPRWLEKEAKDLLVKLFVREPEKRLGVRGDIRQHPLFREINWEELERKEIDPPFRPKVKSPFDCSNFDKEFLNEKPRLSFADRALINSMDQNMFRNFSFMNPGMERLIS

Substance | in vitro kinase assay: AhR Ser-36 phosphorylation
Myc-tagged PKCθ kinase-dead (K409W) mutant | purified kinase-dead (K409W) mutant of PKCθ did not
Myc-tagged PKCθ | purified PKCθ indeed phosphorylated AhR at Ser-36
